Data on one substance can be found in article PMC7265331.

This test addresses Cab45 (UniProt Q9BRK5). Description: GFP-Cab45 oligomerization assay, confocal microscopy. To be noted: reference: GFP-Cab45-WT; sites S99,T131,S142,T193,S349.

As to “Cab45 (from UniProt Q9BRK5) GFP-Cab45-5pXE”, the “other: share of oligomers with maximum intensity <500 a.u.” value is “same; reference 55”.
